PMC3229523, “Identification of Lactoferricin B Intracellular Targets Using an Escherichia coli Proteome Chip” (PLoS ONE, 2011)
Ends that are not written are not given here.

How the values were obtained:
Test in all cases: fluorescence polarisation; 100 nM DyLight 549-labeled LfcinB as tracer; two-fold serial dilution of protein from 0.4 µM to 0.025 µM in PBS, 0.005% BSA, 0.01% Triton X-100; room temperature, 1 h; compared with BSA
Details in all cases: both partners purified
adenylate cyclase CyaA = biological target: T1, adenylate cyclase CyaA (E. coli K-12, UniProt P00936 1-848)
T1 construct: CyaA, adenylate cyclase, E. coli K-12
T1 sequence (looked up): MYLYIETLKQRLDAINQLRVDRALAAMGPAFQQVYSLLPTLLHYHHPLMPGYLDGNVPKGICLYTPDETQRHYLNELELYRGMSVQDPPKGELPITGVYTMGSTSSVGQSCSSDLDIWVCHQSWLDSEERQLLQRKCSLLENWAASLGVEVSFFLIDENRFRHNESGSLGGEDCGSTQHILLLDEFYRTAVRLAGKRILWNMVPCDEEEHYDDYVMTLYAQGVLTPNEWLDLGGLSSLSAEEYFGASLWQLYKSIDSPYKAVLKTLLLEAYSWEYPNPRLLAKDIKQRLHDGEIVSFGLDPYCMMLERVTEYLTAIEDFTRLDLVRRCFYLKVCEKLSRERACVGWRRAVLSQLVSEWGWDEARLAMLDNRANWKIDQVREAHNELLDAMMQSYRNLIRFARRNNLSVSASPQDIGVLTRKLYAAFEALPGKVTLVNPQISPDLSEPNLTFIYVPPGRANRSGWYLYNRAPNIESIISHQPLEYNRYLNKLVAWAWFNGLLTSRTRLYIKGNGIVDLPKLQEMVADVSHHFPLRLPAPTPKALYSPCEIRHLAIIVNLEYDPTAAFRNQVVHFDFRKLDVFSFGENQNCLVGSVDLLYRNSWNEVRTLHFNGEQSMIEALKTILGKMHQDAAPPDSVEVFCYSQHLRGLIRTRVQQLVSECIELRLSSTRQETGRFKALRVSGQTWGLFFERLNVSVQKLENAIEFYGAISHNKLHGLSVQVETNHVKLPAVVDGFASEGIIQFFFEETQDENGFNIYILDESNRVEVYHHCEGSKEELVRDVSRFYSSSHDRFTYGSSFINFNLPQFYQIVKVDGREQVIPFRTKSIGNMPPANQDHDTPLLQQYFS

[1] = biological target: T2, ribonucleoside-diphosphate reductase 2, β subunit (E. coli K-12, UniProt P37146 1-319)
T2 construct: NrdF, ribonucleoside-diphosphate reductase 2, β subunit, E. coli K-12; no measurement of the oligomer here; also called NrdF
T2 sequence (P37146 whole entry): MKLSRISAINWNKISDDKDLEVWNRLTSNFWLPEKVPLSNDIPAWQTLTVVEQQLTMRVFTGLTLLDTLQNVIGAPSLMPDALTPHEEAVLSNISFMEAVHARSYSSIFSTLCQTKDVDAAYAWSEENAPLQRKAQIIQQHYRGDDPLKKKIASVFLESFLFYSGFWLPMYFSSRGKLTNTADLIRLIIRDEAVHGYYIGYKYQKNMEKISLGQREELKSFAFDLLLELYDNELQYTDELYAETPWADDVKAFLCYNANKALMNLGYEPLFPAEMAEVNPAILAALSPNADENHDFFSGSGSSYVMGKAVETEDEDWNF

HyaF = biological target: T3, HyaF (E. coli K-12, UniProt P19932 1-285)
T3 construct: HyaF, E. coli K-12
T3 sequence (looked up): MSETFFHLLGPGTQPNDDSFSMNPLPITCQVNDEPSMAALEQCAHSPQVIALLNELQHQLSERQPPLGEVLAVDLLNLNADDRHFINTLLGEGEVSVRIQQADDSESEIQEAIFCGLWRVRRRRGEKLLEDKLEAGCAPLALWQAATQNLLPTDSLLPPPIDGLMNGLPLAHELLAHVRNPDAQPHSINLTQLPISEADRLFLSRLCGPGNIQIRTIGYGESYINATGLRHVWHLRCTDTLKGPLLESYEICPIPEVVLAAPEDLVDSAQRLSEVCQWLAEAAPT

MetL = biological target: T4, MetL (E. coli K-12, UniProt P00562 1-810)
T4 construct: MetL, E. coli K-12
T4 sequence (looked up): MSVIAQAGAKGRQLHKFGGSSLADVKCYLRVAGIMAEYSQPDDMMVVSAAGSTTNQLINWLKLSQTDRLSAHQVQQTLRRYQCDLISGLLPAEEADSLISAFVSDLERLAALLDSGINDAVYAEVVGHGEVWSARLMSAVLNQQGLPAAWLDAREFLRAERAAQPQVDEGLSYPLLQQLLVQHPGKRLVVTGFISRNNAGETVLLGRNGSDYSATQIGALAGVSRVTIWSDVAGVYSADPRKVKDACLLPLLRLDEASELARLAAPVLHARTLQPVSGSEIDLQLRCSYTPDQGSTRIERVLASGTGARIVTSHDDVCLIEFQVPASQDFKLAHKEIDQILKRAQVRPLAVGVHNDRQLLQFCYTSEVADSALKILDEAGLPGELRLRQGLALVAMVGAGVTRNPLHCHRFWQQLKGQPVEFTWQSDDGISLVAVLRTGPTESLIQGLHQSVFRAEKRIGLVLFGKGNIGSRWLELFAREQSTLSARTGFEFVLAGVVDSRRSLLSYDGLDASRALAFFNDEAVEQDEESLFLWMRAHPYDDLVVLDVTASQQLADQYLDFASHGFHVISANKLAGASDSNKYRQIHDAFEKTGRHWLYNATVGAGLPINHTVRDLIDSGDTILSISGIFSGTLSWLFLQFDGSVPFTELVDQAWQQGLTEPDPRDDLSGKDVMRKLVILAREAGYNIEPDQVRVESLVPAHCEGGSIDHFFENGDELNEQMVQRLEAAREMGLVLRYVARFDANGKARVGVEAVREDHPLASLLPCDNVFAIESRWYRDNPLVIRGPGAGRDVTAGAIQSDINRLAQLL

Measured: binding result

B1: DyLight 549-labeled Lactoferricin B (peptide, UniProt P24627 36-60, looked up)
peptide: FKCRRWQWRMKKLGAPSITCVRRAF
modifications: ends and bridges not checked; also: DyLight 549 label, sites not given here
notes: lactoferricin B (LfcinB), cationic antimicrobial peptide of 25 amino acids; also called fluorescence-labeled LfcinB; LfcinB; source: bought: Kelowna Inc; labelled with DyLight 549-NHS ester, desalted
binds: all assays above
